Test [1] concerns the target recombinant zebrafish Comp (cartilage oligomeric matrix protein) (zebrafish). Nature of the test: non-reducing agarose/polyacrylamide composite gel electrophoresis; purified recombinant Comp; 0.5% agarose/3% polyacrylamide composite gel, SDS sample buffer with 2 M urea, non-reducing; immunoblot with guinea pig antibodies to zebrafish Comp; recombinant rat COMP as marker of the pentamer.

In test [2] the target is zebrafish Comp, tissue-derived (zebrafish (endogenous in 5 dpf whole zebrafish)). Nature of the test: non-reducing agarose/polyacrylamide composite gel electrophoresis; sequential extracts (TBS; 1 M NaCl/EDTA; 8 M urea) of whole 5 dpf zebrafish; 0.5% agarose/3% polyacrylamide composite gel, non-reducing; immunoblot with guinea pig antibodies to zebrafish Comp. Background: Immunoblotting shows a protein as a band on a membrane.

“recombinant zebrafish Comp (cartilage oligomeric matrix protein)”: the stoichiometry N in test [1] turned out to be 5. For “zebrafish Comp, tissue-derived (natural protein)”, in test [2], the stoichiometry N turned out to be 5.

Broadly, the stoichiometry N is the number of molecules, sites or subunits per partner or assembly.

These data come from publication PMC9702538.
